This note sets out measurements from patent publication US20060235215A1 (published 2006).

B1: Novel Protein PN29119, Fragment, prey clone aa 1-155 (printed -53 to 155) (other)
chain: MEFEADGARWPEPRGDAAGAPPLERGDAPSPRFDSSRALRLLRELGSNVTEDLVVLMPNLLSFLKHDDPVVVNQSIASGTNLFAAVLEEMTLQINKCGRVDAWLEEMWAWTKQFKDAVHNLIHESVPVATKLFAVKFIETWILCFAPQSKSDRMQ
notes: prey; AD fusion; output trait library; clone also holds a portion of the 5' untranslated region; also called OsPN29119
B2: O. sativa Cellulose Synthase Catalytic Subunit, RSW1-Like, prey clone aa 316-582 (enzyme)
chain: LLDQFPKWYPINRETYLDRLALRYDREGEPSQLAPIDVFVSTVDPLKEPPLITANTVLSILAVDYPVDKVSCYVSDDGSAMLTFEALSETAEFARKWVPFCKKHNIEPRAPEFYFAQKIDYLKDKIQPSFVKERRAMKREYEEFKVRINALVAKAQKVPEEGWTMADGTAWPGNNPRDHPGMIQVFLGHSGGLDTDGNELPRLVYVSREKRPGFQHHKKAGAMNALIRVSAVLTNGAYLLNVDCDHYFNNSKALREAMCFMMDPALG
notes: prey; AD fusion; input trait library; also called OsCS; PN19707
B3: O. sativa Aquaporin, prey clone aa 123-290 (other)
chain: RKVSLVRAILYIVAQCLGAICGVGLVNAFPNAYFNRYGGGANTLAAGYSKGTGLAAEIIGTFVLVYTVFSATDPKRNARDSHVPVLAPLPIGFAVFMVHLATIPITGTGINPARSIGAAVIFNNEKAWHNHWIFWVGPFVGAAIAAFYHQYILRAGAIKALGSFRSNA
notes: prey; AD fusion; output trait library; also called OsPIP2A; OsPIP2a
B4: O. sativa DNAJ Homologue, prey clone aa 1-92 (other)
chain: CKVSYIDAILGTTVKVPTVDGMVDLKIPSGTQPGTTLVMSKKGVPLLGKSNARGDQLVRVQVEIPKRLSSDERKLIEELANLNKAQTANSRR
notes: prey; AD fusion; output trait library; also called OsPN29113
B5: Novel Protein PN29117, prey clone aa 1-151 (printed -7-151) (other)
chain: MLVQRRDGDTGPAVRLRVSHGASFRDVAVPAHSTFGELKGVLTQATGVEPERQRLFFRGKEKSDNEFLHTAGVKDGAKLLLLEKPAPANVEQRAEPVIMDESMMKACEAVGRVRAEVDRLSAKVCDLEKSVFAGRKIEDKDFVVLTELLMM
notes: prey; AD fusion; output trait library; clone also holds a small portion (-7 to 0) of the 5' untranslated region; also called OsPN29117; BAG-like protein
B6: Novel Protein PN29076, Fragment, prey clone aa 1-187 (other)
chain: ERDISMVNSYPPSAFDCKGWNSASIFIYESDEEIQCLLDWLRDYDPREKELKDSILQWQRHFCHQSSSPLVDPPISGPKGEQLMELPNTKAAVILEQKYGLQLDQDTSDLPKKRGKKIKLSSEDRTYRCDCLEPVWPSRYHCLTCHETYLISTEFEGHNDGKCSKIHQSPDESRENDEPKVKVTKSD
notes: prey; AD fusion; output trait library; also called OsPN29076
B7: Novel Protein PN29116, Fragment, prey clone aa 1-169 (other)
chain: GRKPVAAQHYNKGDKDGTSTGSRCTSVAWVPEREGIFVVSHSDGNLYVYDKCKDGNTECTFPAIKDPAQLMISHAKSSKSNPIARWHVCQGSINAISFSPDGAYLATVGRDGYLRVFDFSKEQLIFGGKSYYGALLCCTWSSDGKYLLTGGEDDLVQVWSMDDRKIVAW
notes: prey; AD fusion; output trait library; also called OsPN29116
B8: Novel Protein PN29115, Fragment, Similar to A. thaliana 6,7-Dimethyl-8-Ribityllumazine Synthase Precursor, prey clone aa 1-188 (other)
chain: VSFPYSPRPAALAAGARASRVSPVVVAAGGGHQRLMGSLTNTQGLRFGVVVARFNEIVTNLLLQGALETFERYSVKKENITVLSVPGSFEIPVAAQKLGKSGKFDANFVHWRCAFRGDTTHYGAVANSAASGVLSAGLSAEIPCIFGVLTCDDMDQALNRAGGKAGNKGAEAALTAIEMASLFQHHLA
notes: prey; AD fusion; output trait library; also called OsPN29115
B9: Novel Protein PN29084, Fragment, Similar to Soybean (Glycine max) Calcium-Dependent Protein Kinase, prey clone aa 1-253 (other)
chain: ESGIFRQILRGKLDLESDPWPSISDSAKDLVRNMLIRDPTKRFTAHEVLCHPWIVDDAVAPDKPIDSAVLSRLKHFSAMNKLKKMALRVIAESLSEEEIGGLKELFKMIDTDNSGTITYDELKNGLKRVGSDLMEPEIQALMDAADIDNSGTIDYGEFLAATLHMNKLEREENLVSAFTFFDKDGSGFITIDELSQACEQFGLSDVHLEDMIKDVDQNNDGQIDYSEFAAMMRKGNAGGANAGGVTSTGGTGR
notes: prey; AD fusion; output trait library; three clones; also called OsPN29084
B10: Novel Protein PN29077, Fragment, Similar to A. thaliana DNA-Damage Inducible Protein DDI1-Like, prey clone aa 1-242 (other)
chain: VEAQKKIEAAIRQKGIDENWEAALEHNPEAFARVVMLYVDMEVNGVPLKAFVDSGAQSTIISKSCAERCGLLRLLDQRYRGVAIGVGQSEILGRIHVAPIKIGHVFYPCSFTVLDAPNMEFLFGLDMLRKHQCIIDLKDNVLRVGGGEVSVPFLQEKDIPSHIRDEEKLSKLASLSQGAAGESSTAREKTPDAPPRAPTTGAPAVNPPQPQGGGDFEAKVTKLVELGFDRASVIQALKLFNG
notes: prey; AD fusion; output trait library; four clones; also called OsPN29077
B11: O. sativa salT Gene Product, prey clone aa 6-145 (other)
chain: IGPWGGNGGSAQDISVPPKKLLGVTIYSSDAIRSIAFNYIGVDGQEYAIGPWGGGESTSTEIKLGSSEQIKEISGTHGPVYDLADIVTYLKIVTSANNTYEAGVPNGKEFSIPLQDSGHVVGFFGRSGTLIDAIGIYVHP
notes: prey; AD fusion; output trait library; also called OsAAB53810; PN29086
B12: Novel Protein PN30974, prey clone aa 38-178 (other)
chain: GGYDHPGLIPGLPDEISLQILARMPRMGYLNAKMVSRSWKAAITGVELYRVRKELGVSEEWLYMLTKSDDGKLVWNAFDPVCGQWQRLPLMPGISHGGECKRGIPGLWLGDLLSAGIRVSDVIRGWLGQRDSLDRLPFCGC
notes: prey; AD fusion; input trait library; also called OsPN30974
B13: OsContig4331, O. sativa Putative 33 kDa Oxygen-Evolving Protein of Photosystem II, prey clone aa 193-333 (other)
chain: DGIDYAAVTVQLPGGERVPFLFTIKNLVATGKPESFGGPFLVPSYRGSSFLDPKGRGGSTGYDNAVALPAGGRGDEEELAKENVKNASSSTGNITLSVTKSKPETGEVIGVFESVQPSDTDLGAKVPKDVKIQGVWYAQLE
notes: prey; AD fusion; input trait library; also called OsPN23059
B14: Novel Protein PN30846 (putative dynamin homolog), prey clone aa 1-266 (other)
chain: APRRPSTFLNAVALGNVGAGKSAVLNSLIGHPVLPTGENGATRAPIVVDLQRDPGLSSKSIVLQIDSKSQRVSASSLRHSLQDRLSKGASSGSSRGRVEGINLKLRTSTAPPLKLVDLPGIDQRAVDDPMINEYAGHNDAILLVVIPAMQAADVASSRALRLAKDIDADGTRTVGVISKVDQAEGDAKTIACVQALLLNKGPKNLPDIEWVALIGQSVAIASAQAAGSENSLETAWNAEAETLRSILTGAPKSKLGRIALVDTIAK
notes: prey; AD fusion; input trait library; also called OsPN30846
B15: O. sativa Photosystem II 10 kDa Polypeptide, prey clone aa 82-126 (other)
chain: SPEEWSPTGDTYVGGTTGLLIWAVTLAGLLGGGALLVYNTSALAG
notes: prey; AD fusion; input trait library; also called OsAAB46718; PN22840
B16: Novel Protein 22858, Fragment, similar to Arabidopsis GTP Cyclohydrolase II, prey clone aa 27-154 (other)
chain: DKPTDGFSSIDEAIGALHEGKFVIAVDDESGDNEGDLVMAATLADPESIAFMIRNGSGIISVGMKEEDLTRLMIPMMSPIAEIEDISAAASTVTVDARVGISTGVSAADRAKTIFTLASPDSKPTDLR
notes: prey; AD fusion; input trait library; also called OsPN22858
B17: Novel Protein 22874, Fragment, similar to Arabidopsis Putative Phosphatidylinositol-4-phosphate 5-kinase, prey clone aa 1-88 (other)
chain: GTNPGFRVGEIRLSNRDIYFGTLLGNTPEGSGRYVWSDGCTYDGEWRRGMRHGQGKTMWPSGATYEGEYSGGYIYGEGTYTGSDNIVY
notes: prey; AD fusion; input trait library; also called OsPN22874; rice PI4P5K
B18: Hypothetical Protein OsContig3864, Similar to H. vulgare Photosystem I Reaction Center Subunit II, Chloroplast Precursor, prey clone aa 94-203 (other)
chain: VITWTSPKEQVFEMPTGGAAIMREGPNLLKLARKEQCLALGTRLRSKYKINYQFYRVFPNGEVQYLHPKDGVYPEKVNAGRQGVGQNFRSIGKNVSPIEVKFTGKNVFDI
notes: prey; AD fusion; input trait library; also called OsPN23061
B19: O. sativa Ribulose Bisphosphate Carboxylase/Oxygenase Activase, Large Isoform A1, prey clone aa 68-210 (enzyme)
chain: DISDDQQDITRGKGFVDSLFQAPTGDGTHEAVLSSYEYLSQGLRTYDFDNTMGGFYIAPAFMDKLVVHISKNFMTLPNIKVPLILGIWGGKGQGKSFQCELVFAKMGINPIMMSAGELESGNAGEPAKLIRQRYREAADIIKK
notes: prey; AD fusion; input trait library; also called OsRCAA1; PN19842
B20: Novel Protein PN29982, prey clone aa 201-300 (other)
chain: SPVVDNADVTETKPQTELPVHVMCAEWSSQKRLKKVQLETLERVYSRTKRPTNTMISSIVQVTSLPRKTIVKWFEDRREQDGVPDHRVAFKRSLSETIAS
notes: prey; AD fusion; input trait library; also called OsPN29982
B21: O. sativa Fructose-Bisphosphate Aldolase, Chloroplast Precursor, prey clone aa 206-269 (enzyme)
chain: QDNGLVPIVEPEILLDGEHGIDRTFEVAQKVWAETFFYMAENNVMFEGILLKPSMVTPGAECKD
notes: prey; AD fusion; input trait library; also called OsBAA02730; PN22832
B22: Novel Protein PN22866, Fragment, Similar to A. thaliana Vacuolar ATP Synthase Subunit C, prey clone aa 95-305 (other)
chain: LLALSDDLVKSNVFIEGVSHKIRRQIEELERAGGVESGALTVDGVPVDTYLTRFVWDEGKYPTMSPLKEIAGSIQSQVSKIEDDMKVRGAEYNNVRSQLNAINRKQTGSLAVRDLSNLVKPEDMVTSEHLVTLLAVVPQYSQKDWLSSYESLDTFVVPRSSKKLYEDNEYALYTVTLFAKVVDNFKVRAREKGFQVRDFEYSSEAQESRKE
notes: prey; AD fusion; input trait library; also called OsPN22866
B23: O. sativa 3-Phosphoshikimate 1-carboxyvinyltransferase (a.k.a. EPSP Synthase), prey clone aa 463-511 (enzyme)
chain: AIDTYDDHRMAMAFSLAACADVPVTIRDPGCTRKTFPNYFDVLSTFVRN
notes: prey; AD fusion; input trait library; also called OsBAB61062; PN22844
B24: OsContig4331, O. sativa Putative 33 kDa Oxygen-Evolving Protein of Photosystem II, prey clone aa 90-169 (other)
chain: PRRLTFDEIQSKTYMEVKGTGTANQCPTVEGGVDSFAFKAGKYNMKKFCLEPTSFTVKAEGVAKNAPPEFQKTKLMTRLT
notes: as for B13

One assay concerns the target T1, O. sativa Cellulose Synthase Catalytic Subunit, RSW1-Like, bait fragment aa 316-583 (Oryza sativa, UniProt A2Y0X2 316-583).
T1 construct: bait; also called OsCS; PN19707
T1 sequence: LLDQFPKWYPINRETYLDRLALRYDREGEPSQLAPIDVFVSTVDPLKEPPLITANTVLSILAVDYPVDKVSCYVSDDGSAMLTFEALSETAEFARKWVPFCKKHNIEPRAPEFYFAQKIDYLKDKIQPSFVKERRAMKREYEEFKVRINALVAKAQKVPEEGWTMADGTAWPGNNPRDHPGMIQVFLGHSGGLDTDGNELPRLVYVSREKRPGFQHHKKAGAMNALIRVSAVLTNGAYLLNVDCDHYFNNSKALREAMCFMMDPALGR
Kind of assay: yeast two-hybrid. The procedure:
Yeast carrying the target gene construct was combined with yeast carrying the activation domain library. The two yeast strains mated to form diploid yeast and were plated on media that selected for expression of one or more Ga14p-responsive reporter genes. Thus, both hybrid proteins (i.e., the target “bait” protein and the activation domain “prey” protein) were expressed in a yeast reporter strain where an interaction between the test proteins results in transcription of the reporter genes […]. Colonies that arose after incubation were selected for further characterization. The activation domain plasmid was isolated from each colony obtained in the two-hybrid search. The sequence of the insert in this construct was obtained by sequence analysis (e.g., Sanger's dideoxy nucleotide chain termination method; see Ausubel et al., 1988, including updates up to 2002). Thus, the identity of positives obtained from these searches was determined by sequence analysis against proprietary and public (e.g., GENBANK®) nucleic acid and protein databases.
A second bait, namely O. sativa Cellulose Synthase Catalytic Subunit, RSW1-Like (OSCS; PN19707; GENBANK® Accession No. AF030052), was also used.
On to B1, for which the binding result is “binds”.

Regarding B2, the binding result was “binds”. On to B3, for which the binding result is listed as “binds”.

On to B4, for which the binding result is on record as “binds”. Regarding B5, the binding result was “binds”. Turning to B6, the binding result is listed as “binds”.

For B7, the binding result was “binds”. Take B8: the binding result is “binds”. As to B9, the binding result is reported as “binds”.

Take B10: the binding result is “binds”. B11: the binding result is recorded as “binds”.

For a further assay, the target named is T2, O. sativa 14-3-3 Protein Homolog GF14-c, bait fragment aa 1-150 (Oryza sativa, UniProt Q6ZKC0 1-150).
T2 construct: bait; also called OsGF14-c; PN12464
T2 sequence: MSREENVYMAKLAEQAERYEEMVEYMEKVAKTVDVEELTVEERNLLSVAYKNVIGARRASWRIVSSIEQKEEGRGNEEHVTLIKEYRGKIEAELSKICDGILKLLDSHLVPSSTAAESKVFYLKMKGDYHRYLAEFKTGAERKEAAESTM
As to the kind of experiment: yeast two-hybrid.
With B12, the binding result is “binds”. As to B13, the binding result is reported as “binds”. Same read-out and setting: for B14 the value was “binds”; for B15, “binds”. Turning to B16, the binding result is “binds”. Turning to B17, the binding result is listed as “binds”. Same read-out and setting: for B18 the value was “binds”. Take B19: the binding result was “binds”. Take B20: the binding result is “binds”.

For B21, the binding result is on record as “binds”.

As to B22, the binding result is on record as “binds”. B23: the binding result is reported as “binds”.

Turning to B24, the binding result is listed as “binds”.
